Paper PMC8913647

Key:
[1] = target: major capsid protein VP1 of GII.4 norovirus Houston/TCH186/2002 (HOV), assembled as virus-like particle (human norovirus GII.4 (Houston/TCH186/2002, HOV)); assay: cryo-EM structure; GII.4 HOV VLPs (0.24 mg/ml) in PBS pH 6.0 on graphene oxide coated grids; single-particle reconstruction with icosahedral symmetry imposed (cryoSPARC); ~3.8 Å
[2] = target: major capsid protein VP1 of GII.4 norovirus Houston/TCH186/2002 (HOV), assembled as virus-like particle (human norovirus GII.4 (Houston/TCH186/2002, HOV)); assay: crystal structure; GII.4 HOV VLP crystallised by hanging-drop vapor diffusion at room temperature; space group I222, 45 VP1 copies in the asymmetric unit, refined with NCS without imposing icosahedral symmetry; 3.0 Å

In the case of “major capsid protein VP1 of GII.4 norovirus Houston/TCH186/2002 (HOV), assembled as virus-like particle (natural protein)”, the stoichiometry N [1] is reported as 180 and the stoichiometry N [2] is reported as 180.
